Assay results taken from patent US6468985B1, “Retinoblastoma protein-interacting zinc finger proteins” (The Burnham Institute, priority 1994, dated 2002).

Legend:
wild-type Rb = target: T1, wild-type Rb (Homo sapiens, UniProt P06400); assay: binding of GST-RIZ (245-573) to 35S-labeled Rb, immunoprecipitation with anti-RIZ antiserum
T1 construct: Wild-type (wt) full length Rb (A9); made in house; host or cells: in vitro transcription/translation
T1 sequence (P06400 1-928): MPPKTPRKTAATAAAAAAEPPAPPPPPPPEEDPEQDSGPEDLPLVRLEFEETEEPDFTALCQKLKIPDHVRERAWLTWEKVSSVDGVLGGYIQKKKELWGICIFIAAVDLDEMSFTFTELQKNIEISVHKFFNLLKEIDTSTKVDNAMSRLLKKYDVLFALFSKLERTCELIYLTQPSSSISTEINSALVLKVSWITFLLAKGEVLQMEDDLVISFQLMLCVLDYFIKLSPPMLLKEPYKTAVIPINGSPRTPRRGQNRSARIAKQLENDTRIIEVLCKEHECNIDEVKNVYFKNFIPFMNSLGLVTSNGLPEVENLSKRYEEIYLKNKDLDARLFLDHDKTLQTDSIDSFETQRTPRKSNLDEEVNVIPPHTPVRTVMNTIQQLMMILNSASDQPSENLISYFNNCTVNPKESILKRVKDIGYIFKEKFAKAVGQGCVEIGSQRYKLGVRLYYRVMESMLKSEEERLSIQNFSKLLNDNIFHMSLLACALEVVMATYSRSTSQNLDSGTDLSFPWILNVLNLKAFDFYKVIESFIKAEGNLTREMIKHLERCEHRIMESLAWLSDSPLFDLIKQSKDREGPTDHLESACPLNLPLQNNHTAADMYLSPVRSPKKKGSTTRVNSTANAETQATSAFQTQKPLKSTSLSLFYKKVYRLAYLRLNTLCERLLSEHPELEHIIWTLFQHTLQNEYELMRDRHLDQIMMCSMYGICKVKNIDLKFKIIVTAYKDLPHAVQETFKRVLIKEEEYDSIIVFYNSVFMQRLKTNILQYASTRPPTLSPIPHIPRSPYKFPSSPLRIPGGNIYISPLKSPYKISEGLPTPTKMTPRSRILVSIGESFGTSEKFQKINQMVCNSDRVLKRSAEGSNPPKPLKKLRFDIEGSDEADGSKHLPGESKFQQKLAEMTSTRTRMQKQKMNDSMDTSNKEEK
Method: (§1) The 56 kD Rb fragment that binds to RIZ is a C-terminal fragment containing the Rb pocket binding region and a C-terminal extension. To further define the portion of 56 kD Rb that binds to RIZ, several Rb mutant polypeptides were tested for binding to RIZ. Mutant and full length Rb were cloned and in vitro transcribed/translated as described previously (Huang et al., supra, 1990). H209 is a point mutation resulting in a single amino acid change in Rb that was identified in the small cell lung cancer H209 cell line (American Type Culture Collection (ATCC) #HTB 172). The various Rb forms were tested for binding to glutathionine S-transferase (GST) fused to a fragment of RIZ from amino acid position 245-573 (GST-RIZ (245-573)). This RIZ fragment contains all of the E1A motifs related to binding Rb and was constructed by cloning a Stu I-Hpa I RIZ fragment (nucleotide 795-3068) into vector pBSK+ to make pBSK+SH. An Eco RI fragment was removed from pBSK+SH and ligated into pGEX-KG to produce vector pKG7.1S containing GST-RIZ (245-573).
(§2) The binding between purified GST-RIZ (245-573) and the above radiolabeled Rb wild-type and deletion mutants was determined by immunoprecipitation with an anti-RIZ antiserum followed by SDS-PAGE and autoradiography. […]

B3 mutant of Rb = target: T2, B3 mutant of Rb (Homo sapiens, UniProt P06400); assay: binding of GST-RIZ (245-573) to 35S-labeled Rb mutant, immunoprecipitation with anti-RIZ antiserum; settings: deletion C-terminal to the Rb binding pocket
T2 construct: made in house; host or cells: in vitro transcription/translation
T2 sequence (P06400 1-803): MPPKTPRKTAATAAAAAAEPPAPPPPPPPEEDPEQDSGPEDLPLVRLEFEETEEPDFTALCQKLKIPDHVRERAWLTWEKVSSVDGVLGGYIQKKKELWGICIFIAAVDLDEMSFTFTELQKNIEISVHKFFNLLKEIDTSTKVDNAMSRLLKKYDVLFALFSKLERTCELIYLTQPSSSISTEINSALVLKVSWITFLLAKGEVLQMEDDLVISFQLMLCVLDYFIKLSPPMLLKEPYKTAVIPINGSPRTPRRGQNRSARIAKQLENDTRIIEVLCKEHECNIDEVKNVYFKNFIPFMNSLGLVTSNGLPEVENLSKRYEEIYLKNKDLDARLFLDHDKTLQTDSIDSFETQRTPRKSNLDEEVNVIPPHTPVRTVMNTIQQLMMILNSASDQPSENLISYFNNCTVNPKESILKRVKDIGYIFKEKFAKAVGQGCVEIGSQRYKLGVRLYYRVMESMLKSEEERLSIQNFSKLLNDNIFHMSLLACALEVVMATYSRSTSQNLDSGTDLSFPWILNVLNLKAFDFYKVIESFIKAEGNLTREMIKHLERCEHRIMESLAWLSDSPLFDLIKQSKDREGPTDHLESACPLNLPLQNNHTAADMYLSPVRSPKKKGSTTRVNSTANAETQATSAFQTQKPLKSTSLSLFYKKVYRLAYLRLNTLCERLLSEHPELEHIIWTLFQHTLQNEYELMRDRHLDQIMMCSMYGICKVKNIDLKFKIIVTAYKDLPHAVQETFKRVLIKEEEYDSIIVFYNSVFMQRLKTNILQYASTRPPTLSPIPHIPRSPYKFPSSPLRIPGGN
Method: as §1, §2

- binding to wild-type Rb (wild-type Rb): showed binding
- binding to B3 mutant of Rb (B3 mutant of Rb): showed binding
B1: GST-RIZ (245-573): glutathionine S-transferase fused to RIZ fragment a.a. 245-573 containing zinc fingers 1-3 (protein)
chain: CEPQPEVDGKQEVTDCEVNDVEEEELEEEEELEEEEEEELGEDGVEEADMPNESSAKEPEIRCEEKPEDLLEEPQSMSNEAREDSPDVTPPPHTPRAREEANGDVLETFMFPCQHCERKFATKQGLERHMHIHISTINHAFKCKYCGKRFGTQINRRRHERRHETGLKRRPSMTLQSSEDPDDGKGENVTSKDESSPPQLGQDCLILNSEKTSQEVLNSSFVEENGEVKELHPCKYCKKVFGTHTNMRRHQRRVHERHLIPKGVRRKGGLLEEPQPPAEQAPPSQNVYVPSTEPEEEGETDDVYIMDISSNISENLNYYIDGKIQTNSS
modifications: left off: a dimerising Fc or GST
